Assay results as given in patent publication US20220025021A1 (BETH ISRAEL DEACONESS MEDICAL CENTER, published 2022).

B1: MS-101 (antibody)
VH: not shown
VL: DFVLTQSPHSLSVTPGEPASISCKSSHSLIHGDRNNYLAWYVQKPGRSPQLLIYLASSRASGVPDRFSGSGSDKDFTLKISRVEAEDVGTYYCMQGRESPWTFGQGTKVDIKRTVAAPSVFIFPPSDEQLKSGTASVVCLLNNFYPREAKVQWKVDNALQSGNSQESVTEQDSKDSTYSLSSTLTLSKADYEKHKVYACEVTHQGLSSPVTKSFNRGEC
B2: MS-102 (antibody)
VH: not shown
VL: DFVLTQSPHSLSVTPGESASISCKSSHSLIHGDRNNYLAWYVQKPGRSPQLLIYLASSRASGVPDRFSGSGSGKDFTLKISRVEAEDVGTYYCMQGRESPWTFGQGTKVDIKRTVAAPSVFIFPPSDEQLKSGTASVVCLLNNFYPREAKVQWKVDNALQSGNSQESVTEQDSKDSTYSLSSTLTLSKADYEKHKVYACEVTHQGLSSPVTKSFNRGEC
B3: MS-112 (antibody)
VH: not shown
VL: DFVLTQSPHSLSVTPGEPASISCKSSHSLIHGDRNNYLAWYVQKPGRSPQLLIYLASSRASGVPDRFSGSGSGKDFTLKISRVEAEDVGTYYCMQGRESPWTFGQGTKVDIKRTVAAPSVFIFPPSDEQLKSGTASVVCLLNNFYPREAKVQWKVDNALQSGNSQESVTEQDSKDSTYSLSSTLTLSKADYEKHKVYACEVTHQGLSSPVTKSFNRGEC
B4: MS-104 (antibody)
VH: not shown
VL: DIVLTQSPLSLSVTPGESASISCKSSHSLIHGDRNNYLAWYVQKPGRSPQLLIYLASSRASGVPDRFSGSGSGKDFTLKISRVETEDVGTYYCMQGRESPWTFGQGTKVDIKRTVAAPSVFIFPPSDEQLKSGTASVVCLLNNFYPREAKVQWKVDNALQSGNSQESVTEQDSKDSTYSLSSTLTLSKADYEKHKVYACEVTHQGLSSPVTKSFNRGEC
B5: MS-107 (antibody)
VH: not shown
VL: DIVLTQSPHSLSVTPGEPASISCKSSHSLIHGDRNNYLAWYVQKPGRSPQLLIYLASSRASGVPDRFSGSGSDKDFTLKISRVEAEDVGTYYCMQGRESPWTFGQGTKVDIKRTVAAPSVFIFPPSDEQLKSGTASVVCLLNNFYPREAKVQWKVDNALQSGNSQESVTEQDSKDSTYSLSSTLTLSKADYEKHKVYACEVTHQGLSSPVTKSFNRGEC
B6: MS-106 (antibody)
VH: not shown
VL: DIVLTQSPHSLSVTPGEPASISCKSSHSLIHGDRNNYLAWYVQKPGRSPQLLIYLASSRASGVPDRFSGSGSGKDFTLKISRVETEDVGTYYCMQGRESPWTFGQGTKVDIKRTVAAPSVFIFPPSDEQLKSGTASVVCLLNNFYPREAKVQWKVDNALQSGNSQESVTEQDSKDSTYSLSSTLTLSKADYEKHKVYACEVTHQGLSSPVTKSFNRGEC
B7: MS-103 (antibody)
VH: not shown
VL: DIVLTQSPLSLSVTPGEPASISCKSSHSLIHGDRNNYLAWYVQKPGRSPQLLIYLASSRASGVPDRFSGSGSDKDFTLKISRVETEDVGTYYCMQGRESPWTFGQGTKVDIKRTVAAPSVFIFPPSDEQLKSGTASVVCLLNNFYPREAKVQWKVDNALQSGNSQESVTEQDSKDSTYSLSSTLTLSKADYEKHKVYACEVTHQGLSSPVTKSFNRGEC
B8: MS-109 (antibody)
VH: not shown
VL: DFVLTQSPLSLSVTPGEPASISCKSSHSLIHGDRNNYLAWYVQKPGRSPQLLIYLASSRASGVPDRFSGSGSGKDFTLKISRVETEDVGTYYCMQGRESPWTFGQGTKVDIKRTVAAPSVFIFPPSDEQLKSGTASVVCLLNNFYPREAKVQWKVDNALQSGNSQESVTEQDSKDSTYSLSSTLTLSKADYEKHKVYACEVTHQGLSSPVTKSFNRGEC
B9: MS-105 (antibody)
VH: not shown
VL: DIVLTQSPLSLSVTPGESASISCKSSHSLIHGDRNNYLAWYVQKPGRSPQLLIYLASSRASGVPDRFSGSGSDKDFTLKISRVEAEDVGTYYCMQGRESPWTFGQGTKVDIKRTVAAPSVFIFPPSDEQLKSGTASVVCLLNNFYPREAKVQWKVDNALQSGNSQESVTEQDSKDSTYSLSSTLTLSKADYEKHKVYACEVTHQGLSSPVTKSFNRGEC
B10: MS-110 (antibody)
VH: not shown
VL: DFVLTQSPLSLSVTPGEPASISCKSSHSLIHGDRNNYLAWYVQKPGRSPQLLIYLASSRASGVPDRFSGSGSDKDFTLKISRVEAEDVGTYYCMQGRESPWTFGQGTKVDIKRTVAAPSVFIFPPSDEQLKSGTASVVCLLNNFYPREAKVQWKVDNALQSGNSQESVTEQDSKDSTYSLSSTLTLSKADYEKHKVYACEVTHQGLSSPVTKSFNRGEC
B11: MS-108 (antibody)
VH: not shown
VL: DIVLTQSPHSLSVTPGESASISCKSSHSLIHGDRNNYLAWYVQKPGRSPQLLIYLASSRASGVPDRFSGSGSGKDFTLKISRVEAEDVGTYYCMQGRESPWTFGQGTKVDIKRTVAAPSVFIFPPSDEQLKSGTASVVCLLNNFYPREAKVQWKVDNALQSGNSQESVTEQDSKDSTYSLSSTLTLSKADYEKHKVYACEVTHQGLSSPVTKSFNRGEC
B12: MS-111 (antibody)
VH: not shown
VL: DFVLTQSPLSLSVTPGESASISCKSSHSLIHGDRNNYLAWYVQKPGRSPQLLIYLASSRASGVPDRFSGSGSGKDFTLKISRVEAEDVGTYYCMQGRESPWTFGQGTKVDIKRTVAAPSVFIFPPSDEQLKSGTASVVCLLNNFYPREAKVQWKVDNALQSGNSQESVTEQDSKDSTYSLSSTLTLSKADYEKHKVYACEVTHQGLSSPVTKSFNRGEC

What was measured:
Assay in all cases: cell-based or functional assay
[1] = target: HIV-1 pseudovirus 263-8 (envelope glycoprotein) (HIV-1)
[2] = target: HIV-1 pseudovirus SC05.8C11.2344 (envelope glycoprotein) (HIV-1)
[3] = target: HIV-1 pseudovirus X1193_c1 (envelope glycoprotein) (HIV-1)
[4] = target: HIV-1 pseudovirus Ce1176_A3 (envelope glycoprotein) (HIV-1)
[5] = target: HIV-1 pseudovirus AC10.0.29 (envelope glycoprotein) (HIV-1)
[6] = target: HIV-1 pseudovirus 6952.v1.c20 (envelope glycoprotein) (HIV-1)

Row | Binder | neutralization IC50 [1] [µg/mL] | neutralization IC80 [1] [µg/mL] | neutralization IC50 [2] [µg/mL] | neutralization IC80 [2] [µg/mL] | neutralization IC50 [3] [µg/mL] | neutralization IC80 [3] [µg/mL] | neutralization IC50 [4] [µg/mL] | neutralization IC80 [4] [µg/mL] | neutralization IC50 [5] [µg/mL] | neutralization IC80 [5] [µg/mL] | neutralization IC50 [6] [µg/mL] | neutralization IC80 [6] [µg/mL]
1 | B1 | 0.011 | 0.041 | 0.819 | 2.69 | 0.098 | 0.602 | 0.043 | 1.94 | 0.045 | 0.221 | 0.254 | 3.51
2 | B2 | 0.007 | 0.027 | 0.527 | 1.42 | 0.071 | 0.412 | 0.039 | 2.75 | 0.047 | 0.168 | 0.162 | 2.53
3 | B3 | 0.013 | 0.037 | 0.501 | 1.68 | 0.069 | 0.293 | 0.068 | 2.03 | 0.056 | 0.262 | 0.16 | 1.47
4 | B4 | 0.014 | 0.052 | 0.512 | 1.73 | 0.063 | 0.388 | 0.218 | 6.11 | 0.041 | 0.208 | 0.457 | 8.61
5 | B5 | 0.016 | 0.055 | 0.658 | 2.28 | 0.13 | 0.57 | 0.147 | 3.99 | 0.079 | 0.397 | 0.457 | 8.87
6 | B6 | 0.011 | 0.039 | 0.411 | 1.44 | 0.093 | 0.394 | 0.099 | 3.43 | 0.062 | 0.299 | 0.216 | 3.8
7 | B7 | 0.018 | 0.07 | 0.707 | 2.44 | 0.112 | 0.502 | 0.172 | 3.13 | 0.07 | 0.334 | 0.485 | 5.95
8 | B8 | 0.01 | 0.033 | 0.546 | 1.85 | 0.073 | 0.467 | 0.078 | 5.83 | 0.04 | 0.199 | 0.188 | 1.74
9 | B9 | 0.017 | 0.062 | 0.794 | 2.73 | 0.067 | 0.417 | 0.172 | 3.39 | 0.051 | 0.394 | 0.706 | 9.49
10 | B10 | 0.01 | 0.038 | 0.914 | 3.1 | 0.106 | 0.677 | 0.097 | 2.5 | 0.076 | 0.285 | 0.195 | 2.12
11 | B11 | 0.012 | 0.042 | 0.428 | 1.45 | 0.083 | 0.545 | 0.117 | 3.84 | 0.045 | 0.216 | 0.323 | 3.37
12 | B12 | 0.016 | 0.045 | 0.496 | 1.69 | 0.109 | 0.352 | 0.082 | 3.12 | 0.061 | 0.258 | 0.213 | 2.1
